Assay [1] addresses T1, p105 (Homo sapiens, UniProt P19838).
T1 sequence (P19838 1-968): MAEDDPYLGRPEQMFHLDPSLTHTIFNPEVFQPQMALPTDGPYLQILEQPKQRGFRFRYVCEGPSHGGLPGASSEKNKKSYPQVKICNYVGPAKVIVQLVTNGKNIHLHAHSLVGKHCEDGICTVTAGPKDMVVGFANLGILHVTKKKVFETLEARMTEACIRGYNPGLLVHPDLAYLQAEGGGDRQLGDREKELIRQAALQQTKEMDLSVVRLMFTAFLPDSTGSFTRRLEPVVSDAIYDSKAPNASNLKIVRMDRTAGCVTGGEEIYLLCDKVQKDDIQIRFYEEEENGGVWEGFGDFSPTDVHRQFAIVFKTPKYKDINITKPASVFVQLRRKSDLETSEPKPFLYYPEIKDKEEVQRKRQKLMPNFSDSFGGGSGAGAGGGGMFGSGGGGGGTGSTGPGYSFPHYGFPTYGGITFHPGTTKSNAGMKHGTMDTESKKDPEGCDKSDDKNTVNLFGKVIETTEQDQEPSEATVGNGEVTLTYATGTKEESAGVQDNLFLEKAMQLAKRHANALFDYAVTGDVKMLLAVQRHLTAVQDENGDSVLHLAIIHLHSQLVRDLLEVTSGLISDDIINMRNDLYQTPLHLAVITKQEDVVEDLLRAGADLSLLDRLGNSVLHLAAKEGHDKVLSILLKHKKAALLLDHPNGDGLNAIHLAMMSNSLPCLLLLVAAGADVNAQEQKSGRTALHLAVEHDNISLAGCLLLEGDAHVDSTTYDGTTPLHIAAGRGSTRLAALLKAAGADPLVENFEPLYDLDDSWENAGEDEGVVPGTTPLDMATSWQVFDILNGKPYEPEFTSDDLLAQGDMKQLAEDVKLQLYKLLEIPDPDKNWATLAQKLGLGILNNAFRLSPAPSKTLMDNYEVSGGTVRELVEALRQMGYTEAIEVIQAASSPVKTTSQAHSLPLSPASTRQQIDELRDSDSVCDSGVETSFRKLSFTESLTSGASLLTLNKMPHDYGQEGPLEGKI
Description: Ubiquitination of p105 by purified KPC1 species in cell-free conjugation assay. It is filed as biochemical. To be noted: reconstituted cell-free system, in vitro translated 35S-labeled p105, purified Ub, E1, E2, UbAl, ATP. The source says: FIGS. 4A and 4B represent western blots showing in vitro ubiquitination of p105 by mutated species of KPC1: FIG. 4A: In vitro translated and ^35S-labeled p105 was ubiquitinated by purified KPC1-Δ1-967-6xHIS (lanes 2-4) or KPC1-Δ1-974-6xHIS (lanes 5-7) in a reconstituted cell-free system. 4B) In vitro translated and ^355-labeled p105 was ubiquitinated by purified KPC1-Δ1-967-6xHIS (lanes 2,5,6), KPC1-Δ1-974-6xHIS (lane 3), KPC1-Δ967-1043-6xHIS (lane 4), WILVRLW-KPC1-Δ1-1039-6xHIS (lanes 7-8) or WILVRLW-KPC1-Δ1-1061-6xHIS (lanes 9-10) in a reconstituted cell-free system.
In order to assess if the interaction between two proteins leads to the conjugation of the substrate p105, ubiquitination reaction was performed in cell free system. The conjugation reaction was carried out in the presence of purified Ub, E1, E2, UbAl, ATP and KPC1—either wild-type or different mutant species. Samples were resolved via SDS-PAGE and the 35S-labeled p105 and its adducts were visualized using autoradiography. […] In addition, the shorter versions of KPC1 in which the 7 amino acids sequence were brought closer to RING domain, the active site of the enzyme were prepared. Both truncated KPC1 proteins that harbor the 7 amino acid sequence, WILVRLW-KPC1-Δ1-1039 (SEQ ID. No. 6) and WILVRLW-KPC1-Δ1-1061 (SEQ ID. No. 7), modified p105 (FIG. 4B, lanes 7-10).

For assay [2], the system named is glioblastoma U87-MG tumor. Description: Growth of U87-MG tumor xenografts overexpressing KPC1 species in nude mice. To be noted: overexpression in U87-MG cells injected to nude mice; growth rates and weights of xenografts, three weeks after inoculation. It is filed as in vivo. From the text:
FIG. 8A and FIG. 8B depict growth rates and weights of tumor xenografts grown in nude mice, and derived from U87-MG expressing V0 (control), Myc-KPC1 or Flag-WILVRLW-KPC1Δ1-1039 (SEQ ID NO: 6).
Growth rates and weights (FIG. 8B) of tumor xenografts grown in nude mice, and derived from U87-MG expressing VO (control), Myc-KPC1, and Flag-WILVRLW-KPC1Δ1-1039 (SEQ ID. No. 6).

The target in assay [3] is T1, p105. As to the kind of experiment: Co-immunoprecipitation (Co-IP) of KPC1 species with p105-HA from transfected HEK293T cells. More on the design: HA; expressed in transfected cells; host or cells: HEK293T. The class given is binding. To be noted: anti-FLAG immunoprecipitation, anti-NF-κB1 western blot, listed as full-length KPC1. The source says:
FIG. 1B is a western blot showing the following: HEK293T cells were transfected with cDNAs coding for p105-HA (lanes 1-6), along with the different KPC1 species as following: W.T KPC1 (lane 1), KPC1Δ969-1314 (lane 2), KPC1Δ1-438 & 1039-1314 (lane 3), KPC1Δ1-967 (lane 4) and KPC1Δ1-1042 (lane 5). Lane 6 was transfected with an empty vector. KPC1 species were immunoprecipitated using immobilized FLAG antibodies, resolved by SDS-page, and NF-κB1 and KPC1 proteins were visualized by anti-NF-κB1 (FIG. 1B (upper)) and anti-FLAG (FIG. 1B (bottom)) antibodies, respectively. 10% of the total cell lysate was analyzed for the expression of p105-HA.
FIG. 2B is a western blot. HEK293T cells were transfected with cDNAs coding for p105-HA (lanes 1-7), along with different KPC1 species as following: WT KPC1 (lane 1), KPC1Δ1-967 (lane 2), KPC1Δ967-1043 (lane 3), KPC1Δ1-973 (lane 4), KPC1Δ1-1017 (lane 5) and KPC1ΔCC domain (lane 6). Lane 7 represents cells that were transfected with empty vector. KPC1 species were immunoprecipitated using immobilized FLAG antibodies, resolved by SDS-page. NF-κB1 and KPC1 proteins were visualized with anti-NF-κB1 (FIG. 2B (i)) and anti-FLAG (FIG. 2B (ii)) antibodies, respectively. 10% of the total cell lysate was analyzed for the expression of p105-HA. FIGS. 3A and 3B: FIG. 3A is a schematic representation of KPC1 species used in the experiment shown in FIG. 3B that was directed to evaluating the region of KPC1 that is responsible for the interaction with p105.
FIG. 3B is a western blot. HEK293T cells were transfected with cDNAs coding for p105-HA (lanes 1-12), along with different KPC1 species as following: KPC1-FLAG (lane 1), WILVRLW-KPC1 Δ 1-1253 (SEQ ID NO: 8) (lane 2), ILVRLW-KPC1 Δ 1-1253 (SEQ ID NO: 10) (lane 3), LVRLW-KPC1 Δ 1-1253 (SEQ ID NO: 11) (lane 4), VRLW-KPC1 Δ 1-1253 (lane 5) (SEQ ID NO: 12), RLW-KPC1 Δ 1-1253 (lane 6) SEQ ID NO:13), KPC1 Δ 1-1253 (lane 7), WILVRL-KPC1 Δ 1-1253 (lane 8) (SEQ ID NO: 14), WILVR-KPC1 Δ 1-1253 (SEQ ID NO: 15) (lane 9), WILV-KPC1 Δ 1-1253 (SEQ ID NO: 16) (lane 10), WIL-KPC1 Δ 1-1253 (SEQ ID NO: 17 (lane 11). Lane 12 represents cells that were transfected with empty vector. KPC1 species were immunoprecipitated using immobilized FLAG antibodies, resolved by SDS-page. NF-κB1 and KPC1 proteins were visualized by anti-NF-κB1 (FIG. 3B, (i, ii) and anti-FLAG (FIG. 3B, (iii) antibodies, respectively. 10% of the total cell lysate was analyzed for the expression of p105-HA (FIG. 3B, (ii)).
HEK293T cells were transiently transfected with the various KPC1 species along with p105-HA using the j etPEI reagent. 48 hours after transfection, the cells were harvested and lysed with RIPA buffer [150 mM NaCl, 0.5% sodium deoxycholate, 50 mM Tris-HCl (pH 8.0), 0.1% SDS, and 1% NP-40, supplemented with freshly added protease inhibitors mixture]. KPC1 species proteins were immunoprecipitated with immobilized anti-FLAG, with subsequent washing of the beads five times with RIPA buffer. The immunoprecipitated proteins were resolved by SDS-PAGE (10%, FIGS. 1A, 1B, 2A and 2B, with a gel gradient, of 4-20%; FIGS. 3A and 3B), and blotted onto nitrocellulose (FIGS. 1A, 1B, 2A and 2B) or PVDF (FIGS. 3A and 3B) membranes. p105 and KPC1 species were visualized using anti-NF-κB1 or anti-FLAG antibodies, respectively.
Identification of the region of KPC1 that is responsible for the interaction with p105. In order to identify the region of KPC1 that is responsible for the interaction with p105, several truncated segments of the DNA sequence of the KPC1 protein were cloned. The truncated segments were inserted into the pCAGGS expression vector to analyze their interaction with p105 by co-immunoprecipitation (Co-IP) from cells. HEK 293T cells were transfected with cDNAs coding for p105-HA, along with different fragments of KPC1 (FIG. 1A). Species of KPC1 were immunoprecipitated using an immobilized anti-Flag antibody. […]

B1: WILVRLW-KPC1-Δ1-1039: truncated KPC1 with the 7 amino acid sequence brought closer to RING domain, SEQ ID NO: 6 (protein)
chain: WILVRLWAFSEFIGMIQEIQQAAERLERNFVDSRQLKVCATCFDLSVSLLRVLEMTITLVPEIFLDWTRPTSEMLLRRLAQLLNQVLNRVTAERNLFDRVVTLRLPGLESVDHYPILVAVTGILVQLLVRGPASEREQATSVLLADPCFQLRSICYLLGQPEPPAPGTALPAPDRKRFSLQSYADYISADELAQVEQMLAHLTSASAQAAAASLPTSEEDLCPICYAHPISAVFQPCGHKSCKACINQHLMNNKDCFFCKTTIVSVEDWEKGANTSTTSSAA
Take B1: the “ubiquitination of p105” value in assay [1] is reported as “modified p105”. Besides, in assay [2], the tumor growth result is recorded as “repressed glioblastoma U87-MG tumor growth”.

B2: KPC1: wild-type ubiquitin ligase KPC1 (RNF123), SEQ ID NO: 2 (protein)
chain: MASKGAGMSFSRKSYRLTSDAEKSRVTGIVQEKLLNDYLNRIFSSSEHAPPAATSRKPLNFQNLPEHLDQLLQVDNEEEESQGQVEGRLGPSTVVLDHTGGFEGLLLVDDDLLGVIGHSNFGTIRSTTCVYKGKWLYEVLISSQGLMQIGWCTISCRFNQEEGVGDTHNSYAYDGNRVRKWNVTTTNYGKAWAAGDIVSCLIDLDDGTLSFCLNGVSLGTAFENLSRGLGMAYFPAISLSFKESVAFNFGSRPLRYPVAGYRPLQDPPSADLVRAQRLLGCFRAVLSVELDPVEGRLLDKESSKWRLRGQPTVLLTLAHIFHHFAPLLRKVYLVEAVLMSFLLGIVEKGTPTQAQSVVHQVLDLLWLFMEDYEVQDCLKQLMMSLLRLYRFSPIVPDLGLQIHYLRLTIAILRHEKSRKFLLSNVLFDVLRSVVFFYIKSPLRVEEAGLQELIPTTWWPHCSSREGKESTEMKEETAEERLRRRAYERGCQRLRKRIEVVEELQVQILKLLLDNKDDNGGEASRYIFLTKFRKFLQENASGRGNMPMLCPPEYMVCFLHRLISALRYYWDEYKASNPHASFSEEAYIPPQVFYNGKVDYFDLQRLGGLLSHLRKTLKDDLASKANIVIDPLELQSTAMDDLDEDEEPAPAMAQRPMQALAVGGPLPLPRPGWLSSPTLGRANRFLSTAAVSLMTPRRPLSTSEKVKVRTLSVEQRTREDIEGSHWNEGLLLGRPPEEPEQPLTENSLLEVLDGAVMMYNLSVHQQLGKMVGVSDDVNEYAMALRDTEDKLRRCPKRRKDILAELTKSQKVFSEKLDHLSRRLAWVHATVYSQEKMLDIYWLLRVCLRTIEHGDRTGSLFAFMPEFYLSVAINSYSALKNYFGPVHSMEELPGYEETLTRLAAILAKHFADARIVGTDIRDSLMQALASYVCYPHSLRAVERIPEEQRIAMVRNLLAPYEQRPWAQTNWILVRLWRGCGFGYRYTRLPHLLKTKLEDANLPSLQKPCPSTLLQQHMADLLQQGPDVAPSFLNSVLNQLNWAFSEFIGMIQEIQQAAERLERNFVDSRQLKVCATCFDLSVSLLRVLEMTITLVPEIFLDWTRPTSEMLLRRLAQLLNQVLNRVTAERNLFDRVVTLRLPGLESVDHYPILVAVTGILVQLLVRGPASEREQATSVLLADPCFQLRSICYLLGQPEPPAPGTALPAPDRKRFSLQSYADYISADELAQVEQMLAHLTSASAQAAAASLPTSEEDLCPICYAHPISAVFQPCGHKSCKACINQHLMNNKDCFFCKTTIVSVEDWEKGANTSTTSSAA
For B2, the tumor growth result in assay [2] is reported as “repressed glioblastoma U87-MG tumor growth”. Further, the “interaction with p105 (Co-IP)” value in assay [3] is “an interaction between p105 and the full-length KPC1 protein was observed”.

For the origin of these results see US12421510B2, “Peptide, a complex and a method for treating cancer” (TECHNION RESEARCH & DEVELOPMENT FOUNDATION LIMITED, priority 2018, dated 2025).
